According to patent US20030175270:

How the values were obtained:
[1] = molecular target: JAK2 immunoprecipitated from BMMC lysates (tyrosine-phosphorylated) (UniProt Q62120)
[2] = molecular target: Tyk2 immunoprecipitated from macrophage lysates (UniProt Q9R117)
[3] = molecular target: JAK1 immunoprecipitated from BMMC lysates (UniProt P52332)
[4] = molecular target: Lyn immunoprecipitated from BMMC lysates (UniProt P25911)
[5] = molecular target: STAT3 immunoprecipitated from BMMC lysates (UniProt P42227)
[6] = molecular target: STAT5 immunoprecipitated from BMMC lysates (UniProt Q9JIA0)

Sequence of JAK2 immunoprecipitated from BMMC lysates (tyrosine-phosphorylated) (Q62120 whole entry): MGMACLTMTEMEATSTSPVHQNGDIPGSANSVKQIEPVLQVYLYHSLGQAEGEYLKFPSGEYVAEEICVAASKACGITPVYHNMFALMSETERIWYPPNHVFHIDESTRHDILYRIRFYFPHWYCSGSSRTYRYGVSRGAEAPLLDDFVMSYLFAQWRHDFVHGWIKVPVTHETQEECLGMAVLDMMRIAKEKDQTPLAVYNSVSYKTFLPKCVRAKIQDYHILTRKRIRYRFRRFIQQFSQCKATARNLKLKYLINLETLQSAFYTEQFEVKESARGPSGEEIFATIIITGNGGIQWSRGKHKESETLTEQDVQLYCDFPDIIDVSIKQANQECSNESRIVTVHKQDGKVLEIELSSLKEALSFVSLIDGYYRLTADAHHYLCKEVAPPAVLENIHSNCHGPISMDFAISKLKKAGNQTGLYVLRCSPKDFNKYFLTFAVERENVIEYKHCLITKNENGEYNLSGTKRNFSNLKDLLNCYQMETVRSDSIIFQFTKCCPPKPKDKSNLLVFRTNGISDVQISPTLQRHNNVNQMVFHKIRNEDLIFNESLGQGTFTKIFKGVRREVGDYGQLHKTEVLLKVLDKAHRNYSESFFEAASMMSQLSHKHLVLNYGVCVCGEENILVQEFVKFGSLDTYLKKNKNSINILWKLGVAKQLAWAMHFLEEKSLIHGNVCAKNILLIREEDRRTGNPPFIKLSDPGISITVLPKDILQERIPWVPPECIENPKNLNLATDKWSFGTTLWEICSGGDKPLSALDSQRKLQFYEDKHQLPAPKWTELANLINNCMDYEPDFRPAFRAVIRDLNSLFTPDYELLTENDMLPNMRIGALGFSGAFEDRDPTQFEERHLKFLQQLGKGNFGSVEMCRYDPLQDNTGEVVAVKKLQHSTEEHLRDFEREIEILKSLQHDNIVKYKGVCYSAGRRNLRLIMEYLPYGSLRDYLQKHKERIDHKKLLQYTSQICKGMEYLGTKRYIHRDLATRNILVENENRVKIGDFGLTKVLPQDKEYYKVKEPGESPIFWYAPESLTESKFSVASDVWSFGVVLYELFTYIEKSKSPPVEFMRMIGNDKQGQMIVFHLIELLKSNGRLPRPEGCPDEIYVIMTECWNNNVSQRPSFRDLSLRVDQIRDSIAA
Sequence of Lyn immunoprecipitated from BMMC lysates (P25911 2-512): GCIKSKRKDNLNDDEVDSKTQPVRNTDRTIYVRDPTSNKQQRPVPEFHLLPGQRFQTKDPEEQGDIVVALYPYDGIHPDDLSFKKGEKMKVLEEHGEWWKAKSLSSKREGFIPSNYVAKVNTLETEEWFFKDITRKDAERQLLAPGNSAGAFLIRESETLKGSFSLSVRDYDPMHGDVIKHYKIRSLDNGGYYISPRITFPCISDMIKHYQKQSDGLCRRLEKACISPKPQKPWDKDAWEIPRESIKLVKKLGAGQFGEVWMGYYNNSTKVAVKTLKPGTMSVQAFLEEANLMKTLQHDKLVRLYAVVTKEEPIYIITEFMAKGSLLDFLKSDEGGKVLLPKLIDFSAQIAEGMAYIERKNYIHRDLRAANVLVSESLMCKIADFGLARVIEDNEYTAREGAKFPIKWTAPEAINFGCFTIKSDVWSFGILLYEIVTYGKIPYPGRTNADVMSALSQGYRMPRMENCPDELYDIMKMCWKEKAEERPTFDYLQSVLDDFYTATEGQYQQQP
Sequence of JAK1 immunoprecipitated from BMMC lysates (P52332 whole entry): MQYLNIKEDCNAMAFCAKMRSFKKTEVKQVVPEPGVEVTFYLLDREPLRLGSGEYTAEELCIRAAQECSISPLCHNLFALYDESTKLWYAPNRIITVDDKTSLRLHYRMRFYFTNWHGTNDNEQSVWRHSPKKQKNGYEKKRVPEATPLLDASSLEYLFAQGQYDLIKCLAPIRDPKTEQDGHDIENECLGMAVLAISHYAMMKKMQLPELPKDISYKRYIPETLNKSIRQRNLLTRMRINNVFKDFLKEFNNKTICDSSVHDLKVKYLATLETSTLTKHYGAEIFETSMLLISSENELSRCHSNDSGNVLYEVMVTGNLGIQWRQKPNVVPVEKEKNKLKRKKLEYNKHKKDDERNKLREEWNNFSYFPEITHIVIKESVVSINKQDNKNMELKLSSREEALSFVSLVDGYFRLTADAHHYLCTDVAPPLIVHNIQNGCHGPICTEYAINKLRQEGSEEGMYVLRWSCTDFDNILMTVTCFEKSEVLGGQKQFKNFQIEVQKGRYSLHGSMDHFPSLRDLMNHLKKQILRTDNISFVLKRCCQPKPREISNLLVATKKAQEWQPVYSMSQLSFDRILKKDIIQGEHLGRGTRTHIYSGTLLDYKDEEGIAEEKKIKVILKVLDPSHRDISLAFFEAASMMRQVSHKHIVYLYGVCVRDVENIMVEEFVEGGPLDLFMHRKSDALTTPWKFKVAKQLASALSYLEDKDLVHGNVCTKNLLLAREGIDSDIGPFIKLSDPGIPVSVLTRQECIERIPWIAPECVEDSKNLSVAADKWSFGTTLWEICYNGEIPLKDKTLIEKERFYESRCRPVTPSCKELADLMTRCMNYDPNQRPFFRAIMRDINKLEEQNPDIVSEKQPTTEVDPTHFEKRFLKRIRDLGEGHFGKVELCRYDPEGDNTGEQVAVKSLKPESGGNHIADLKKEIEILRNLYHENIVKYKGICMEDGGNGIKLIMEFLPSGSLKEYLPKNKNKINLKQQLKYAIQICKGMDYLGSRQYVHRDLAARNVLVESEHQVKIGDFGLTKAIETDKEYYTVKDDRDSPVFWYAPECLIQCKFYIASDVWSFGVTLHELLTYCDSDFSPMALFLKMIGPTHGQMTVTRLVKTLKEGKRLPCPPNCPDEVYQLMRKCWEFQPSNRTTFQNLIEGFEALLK
Sequence of STAT3 immunoprecipitated from BMMC lysates (P42227 2-770): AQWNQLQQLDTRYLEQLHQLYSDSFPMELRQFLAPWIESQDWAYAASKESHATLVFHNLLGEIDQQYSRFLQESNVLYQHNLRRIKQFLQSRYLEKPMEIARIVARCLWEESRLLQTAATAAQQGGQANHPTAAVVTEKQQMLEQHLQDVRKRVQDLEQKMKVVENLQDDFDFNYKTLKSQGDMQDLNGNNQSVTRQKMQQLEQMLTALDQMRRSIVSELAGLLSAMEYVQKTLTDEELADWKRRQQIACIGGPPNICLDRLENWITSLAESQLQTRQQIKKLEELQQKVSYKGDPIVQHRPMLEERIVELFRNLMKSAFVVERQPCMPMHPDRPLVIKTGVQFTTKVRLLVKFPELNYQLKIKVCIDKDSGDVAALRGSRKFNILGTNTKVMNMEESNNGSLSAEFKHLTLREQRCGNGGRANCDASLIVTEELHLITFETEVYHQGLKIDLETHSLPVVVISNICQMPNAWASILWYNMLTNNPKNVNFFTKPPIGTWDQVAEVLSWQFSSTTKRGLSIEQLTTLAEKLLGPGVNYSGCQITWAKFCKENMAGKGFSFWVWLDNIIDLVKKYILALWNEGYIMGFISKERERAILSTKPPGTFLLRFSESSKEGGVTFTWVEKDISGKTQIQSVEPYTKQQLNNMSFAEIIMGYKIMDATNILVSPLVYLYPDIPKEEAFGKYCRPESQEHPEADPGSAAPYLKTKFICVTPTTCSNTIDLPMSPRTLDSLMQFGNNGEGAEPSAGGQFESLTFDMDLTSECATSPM

| Substance | tyrosine dephosphorylation in vitro (phosphatase assay) [1] | dephosphorylation of critical tyrosine residues in vitro (site-specific phospho-specific antibodies) [2] | dephosphorylation of critical tyrosine residues in vitro (site-specific phospho-specific antibodies) [3] | dephosphorylation of critical tyrosine residues in vitro (site-specific phospho-specific antibodies) [1] | tyrosine dephosphorylation in vitro (phosphatase assay, immunoblot) [1] | tyrosine dephosphorylation in vitro (phosphatase assay, immunoblot) [4] | tyrosine dephosphorylation in vitro (phosphatase assay, immunoblot) [5] | tyrosine dephosphorylation in vitro (phosphatase assay, immunoblot) [6] |
| --- | --- | --- | --- | --- | --- | --- | --- | --- |
| PTPase-dead rCD45 (D1:C828S mutant) | PTPase-dead rCD45 (D1:C828S mutant) did not dephosphorylate JAK2 |  |  |  |  |  |  |  |
| recombinant CD45 (intracellular dual PTPase domains, Mr 97K, catalytic D1 and non-catalytic D2, lacking extracellular regions) |  | rCD45 does indeed dephosphorylate the critical tyrosine residues of JAK1, JAK2, and Tyk2 in vitro | rCD45 does indeed dephosphorylate the critical tyrosine residues of JAK1, JAK2, and Tyk2 in vitro | rCD45 does indeed dephosphorylate the critical tyrosine residues of JAK1, JAK2, and Tyk2 in vitro | rCD45 did, however, dephosphorylate JAK2 in vitro | rCD45 dephosphorylated Lyn in a dose-dependent manner | tyrosine dephosphorylation of STAT3 (FIGS. 3A and 3B) and STAT5 did not occur after incubation with rCD45, even at high concentrations of rCD45 | tyrosine dephosphorylation of STAT3 (FIGS. 3A and 3B) and STAT5 did not occur after incubation with rCD45, even at high concentrations of rCD45 |
